Measurements published in patent publication US20190092846A1.
Numbering of substitutions follows the chain as printed. Values belong to the binder of their own block, whether it stands above or below them.

Tests used:
[1] = biological target: T1, mouse recombinant TGF-β2 (mouse) (UniProt P27090)
T1 sequence (looked up): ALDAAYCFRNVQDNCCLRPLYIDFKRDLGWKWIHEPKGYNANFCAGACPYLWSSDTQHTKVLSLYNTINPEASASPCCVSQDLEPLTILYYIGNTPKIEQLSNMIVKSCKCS

human TGF-β1 (human) = human TGF-β1 (human) (UniProt P01137); assay: cell-based or functional assay
human TGF-β3 (human) [2] = biological target: T2, human TGF-β3 (human) (UniProt P10600); assay: cell-based or functional assay
T2 sequence: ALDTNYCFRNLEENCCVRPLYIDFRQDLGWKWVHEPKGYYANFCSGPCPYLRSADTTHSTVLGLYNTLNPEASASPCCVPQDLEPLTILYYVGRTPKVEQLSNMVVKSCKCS

[3] = biological target: T3, human recombinant TGF-β2 (human); assay: cell-based or functional assay
T3 sequence: T1 sequence (looked up) with T59S, K60R, N94K

[4] = biological target: T1, mouse recombinant TGF-β2 (mouse); assay: cell-based or functional assay
[5] = biological target: T3, human recombinant TGF-β2 (human); assay: ratio of the KD values of Table 4
human TGF-β3 (human) [6] = biological target: T2, human TGF-β3 (human); assay: BiaCORE (surface plasmon resonance)
[7] = biological target: T3, human recombinant TGF-β2 (human); assay: BiaCORE (surface plasmon resonance)

human TGF-β1 (human), sequence (P01137 279-390 limits assumed): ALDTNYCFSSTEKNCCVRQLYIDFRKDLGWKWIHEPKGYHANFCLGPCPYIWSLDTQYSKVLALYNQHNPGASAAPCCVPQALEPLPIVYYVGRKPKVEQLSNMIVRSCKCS

IC50 (read off the curve) (CAGA-12 luciferase reporter gene assay, HEK293T/17) [1]: 0.3 nM
RGA (CAGA-12 luc/Smad-2/3 RGA; IC 50 [pM]) (human TGF-β1 (human)): > 100000 pM
RGA (CAGA-12 luc/Smad-2/3 RGA; IC 50 [pM]) (human TGF-β3 (human) [2]): 1230 pM
RGA (CAGA-12 luc/Smad-2/3 RGA; IC 50 [pM]) [3]: 26 pM
RGA (CAGA-12 luc/Smad-2/3 RGA; IC 50 [pM]) [4]: 298 pM
fold lower KD for TGFβ2 than for TGFbeta 3 [5]: 16 fold
Kd (human TGF-β3 (human) [6]): 1.18 nM
Kd [7]: 0.073 nM
B1: CAT-152 (antibody, INN chains, looked up, human IgG4, V domains shown)
VH: EVQLVESGGGVVQPGRSLRLSCAASGFTFSSYGMHWVRQAPGKGLEWVAVIWYDGSNKYYADSVKGRFTISRDNSKNTLYLQMDSLRAEDTAVYYCGRTLESSLWGQGTLVTVSS
VL: SSELTQDPAVSVALGQTVRITCQGDSLRSYYASWYQQKPGQAPVLVIYGKNNRPSGIPDRFSGSSSGNTASLTITGAQAEDEADYYCNSRDSSSTHRGVFGGGTKLTVL

RGA (CAGA-12 luc/Smad-2/3 RGA; IC 50 [pM]) [4]: > 100000 pM
B2: 1D11 (antibody, from another filing, V domains shown)
VH: QVQLQQSGPELVRPGASVKLSCKASGYIFITYWMNWVKQRPGQGLEWIGQIFPASGSTNYNEMFEGKATLTVDTSSSTAYMQLSSLTSEDSAVYYCARGDGNYALDAMDYWGQGTSVTVSS
VL: DIVLTQSPASLAVSLGQRATISCRASESVDSYGNSFMHWYQQKSGQPPKLLIYLASNLESGVPARFSGSGSRTDFTLTIDPVEADDAATYYCQQNNEDPLTFGAGTKLEIK
